Measured values as given in patent publication US20200023080A1, “COMPOSITIONS AND METHOD FOR THE TREATMENT AND DETECTION OF COLON CANCER” (priority 2015, published 2020).
Positions of bridges follow the written chain, without caps; N, C: chain ends. Non-standard residues stand in square brackets, D forms with d. No end group written: not given here. Cy5.5 = cyanine dye Cy5.5, conjugated via NHS ester; Cy3 = cyanine dye Cy3, conjugated via NHS ester

Key:
GC-C receptor = GC-C receptor (Homo sapiens, UniProt P25092); assay: Binding of dye-conjugated SP-333 to GC-C receptors (method not specified)
Description: (§1) SP-333 was labeled with an appropriate infrared (IR) fluorescence dye for in vivo imaging purposes. The peptide was to be labeled with an appropriate IR dye through the reaction of a N-hydroxysuccinamidyl (NHS) activated ester with the amine group of the peptide. Our initial test with the VivoTag680 NHS ester supplied by PerkinElmer, Inc was not successful. […] Labeling SP-333 with Cy3 and the subsequent HPLC purification was successful, with an overall labeling efficiency of 30% achieved. […] Both Cy3 and Cy5.5 belong to a family of cyanine fluorescence dyes used in bioimaging applications. […] We performed similar binding experiments with the cell membranes isolated from T84 cells and from rat intestinal tissues. […] Thus, SP-333-IR680 fluorescence was custom synthesized.

[1] = target: T1, cell membranes isolated from rat intestinal tissues (Rattus norvegicus, UniProt P23897); assay: Binding of Cy3/Cy5.5 probes to cell membranes from rat intestinal tissues
T1 construct: cell membranes isolated from T84 cells and from rat intestinal tissues; from tissue; host or cells: rat intestinal tissue membranes
T1 sequence (P23897 23-1072): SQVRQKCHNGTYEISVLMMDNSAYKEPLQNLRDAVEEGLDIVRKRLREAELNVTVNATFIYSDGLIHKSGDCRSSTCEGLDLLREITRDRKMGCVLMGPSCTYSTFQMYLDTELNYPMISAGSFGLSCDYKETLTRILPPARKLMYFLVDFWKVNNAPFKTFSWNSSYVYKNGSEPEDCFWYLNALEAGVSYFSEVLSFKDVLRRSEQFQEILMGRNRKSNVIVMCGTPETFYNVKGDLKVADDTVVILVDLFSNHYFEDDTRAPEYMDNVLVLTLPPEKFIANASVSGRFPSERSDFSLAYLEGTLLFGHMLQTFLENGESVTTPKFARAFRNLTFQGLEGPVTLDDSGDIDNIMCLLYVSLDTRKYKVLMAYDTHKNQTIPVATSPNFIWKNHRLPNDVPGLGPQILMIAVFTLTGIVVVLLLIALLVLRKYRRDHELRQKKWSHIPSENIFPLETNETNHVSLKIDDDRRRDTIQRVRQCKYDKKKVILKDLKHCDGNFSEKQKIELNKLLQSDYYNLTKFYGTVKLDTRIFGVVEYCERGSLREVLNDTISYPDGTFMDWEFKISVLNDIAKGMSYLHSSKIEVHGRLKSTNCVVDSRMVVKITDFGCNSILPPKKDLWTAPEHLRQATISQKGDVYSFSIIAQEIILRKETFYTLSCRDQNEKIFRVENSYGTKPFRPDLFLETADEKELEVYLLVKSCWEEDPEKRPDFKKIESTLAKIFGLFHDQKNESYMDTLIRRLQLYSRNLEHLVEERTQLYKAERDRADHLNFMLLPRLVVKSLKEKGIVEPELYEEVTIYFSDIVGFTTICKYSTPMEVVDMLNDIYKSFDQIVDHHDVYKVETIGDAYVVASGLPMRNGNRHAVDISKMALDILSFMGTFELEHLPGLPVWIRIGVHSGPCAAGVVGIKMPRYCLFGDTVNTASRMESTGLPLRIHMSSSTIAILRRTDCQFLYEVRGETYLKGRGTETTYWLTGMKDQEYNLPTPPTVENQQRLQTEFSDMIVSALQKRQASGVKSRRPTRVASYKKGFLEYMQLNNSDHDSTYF
Description: as §1

[2] = target: T2, GC-C receptors expressed on the surface of T84 cells (Homo sapiens, UniProt P25092); assay: Binding of Cy3/Cy5.5 probes to T84 cells
T2 construct: endogenous in cells; host or cells: T84 cells, intact or as isolated cell membranes
Description: as §1

rat intestinal fragments = assay: Ex vivo binding of Cy3/Cy5.5 probes with rat intestinal fragments
Description: as §1

[3] = target: T3, cell membranes isolated from T84 cells (Homo sapiens, UniProt P25092); assay: Binding of Cy3/Cy5.5 probes to cell membranes isolated from T84 cells
T3 construct: endogenous in cells; host or cells: T84 cells, intact or as isolated cell membranes
Description: as §1

[4] = target: T4, Guanylate cyclase C (GC-C) receptor expressed on human T84 cells (human, UniProt P25092 24-1073); assay: competition of unlabeled SP-333 against IR680-SP-333 probe binding on T84 cells
T4 construct: whole, on cells; also called GC-C receptors

[5] = target: T5, GC-C receptor in rat intestinal tissues (rat, UniProt P23897 23-1072); assay: binding to cell membranes from rat intestinal tissues; ex vivo binding with rat intestinal fragments
T5 construct: whole, on cells; the protein target is inferred from the preceding sentence on GC-C receptors; also called cell membranes from rat intestinal tissues; rat intestinal fragments
T5 sequence (looked up): T1 sequence (P23897 23-1072)

T3 sequence (P25092 24-1073): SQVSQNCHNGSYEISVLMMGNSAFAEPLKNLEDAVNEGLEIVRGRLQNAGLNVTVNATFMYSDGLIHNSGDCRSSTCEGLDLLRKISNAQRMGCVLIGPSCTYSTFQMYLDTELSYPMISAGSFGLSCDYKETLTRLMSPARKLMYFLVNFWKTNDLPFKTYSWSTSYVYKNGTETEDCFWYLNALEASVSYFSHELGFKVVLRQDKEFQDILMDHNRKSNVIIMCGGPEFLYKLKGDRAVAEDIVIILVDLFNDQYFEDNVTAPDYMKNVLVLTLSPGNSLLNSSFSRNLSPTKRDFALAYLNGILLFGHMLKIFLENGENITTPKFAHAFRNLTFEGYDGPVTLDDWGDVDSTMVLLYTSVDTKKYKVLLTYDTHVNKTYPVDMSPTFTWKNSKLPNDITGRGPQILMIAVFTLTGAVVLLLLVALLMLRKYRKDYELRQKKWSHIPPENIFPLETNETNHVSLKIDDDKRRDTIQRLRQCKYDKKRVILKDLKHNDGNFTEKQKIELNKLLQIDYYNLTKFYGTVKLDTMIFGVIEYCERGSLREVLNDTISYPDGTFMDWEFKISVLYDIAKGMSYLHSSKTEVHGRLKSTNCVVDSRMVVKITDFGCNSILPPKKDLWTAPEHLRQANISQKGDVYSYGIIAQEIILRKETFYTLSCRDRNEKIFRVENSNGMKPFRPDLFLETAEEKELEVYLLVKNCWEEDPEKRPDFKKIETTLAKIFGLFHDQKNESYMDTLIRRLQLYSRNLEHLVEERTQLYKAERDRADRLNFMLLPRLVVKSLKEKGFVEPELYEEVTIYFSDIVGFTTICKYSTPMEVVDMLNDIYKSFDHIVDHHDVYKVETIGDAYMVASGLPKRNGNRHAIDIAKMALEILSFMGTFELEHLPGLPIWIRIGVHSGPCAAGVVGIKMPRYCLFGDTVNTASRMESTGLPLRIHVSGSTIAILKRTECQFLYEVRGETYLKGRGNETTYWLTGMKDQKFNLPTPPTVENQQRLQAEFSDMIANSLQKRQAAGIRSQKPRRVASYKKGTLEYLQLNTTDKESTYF
T2 sequence (P25092 24-1073): as above
Sequence of GC-C receptor (P25092 24-1073): as above
T4 sequence (P25092 24-1073): as above

Molecule: Cy3-SP-333: SP-333 conjugated with cyanine fluorescence dye Cy3-NHS ester (Cy3-[dN]DECELCVNVACTGC[dL]; disulfide 4-12, 7-15)
- binding to GC-C receptors after conjugation of dye to the N-terminal of SP-333 (GC-C receptor): without appreciable loss
- specific binding to cell membranes isolated from rat intestinal tissues [1]: did not show any specific binding
- specific binding to GC-C receptors on the surface of T84 cells [2]: failed to exhibit specific binding
- specific binding in ex vivo binding with rat intestinal fragments (rat intestinal fragments): lack of specific binding
- specific binding to cell membranes isolated from T84 cells [3]: did not show any specific binding

Molecule: Cy5.5-SP-333: SP-333 conjugated with cyanine fluorescence dye Cy5.5 NHS ester ({Cy5.5}-[dN]DECELCVNVACTGC[dL]; disulfide 4-12, 7-15)
- binding to GC-C receptors after conjugation of dye to the N-terminal of SP-333 (GC-C receptor): without appreciable loss
- specific binding to cell membranes isolated from rat intestinal tissues [1]: did not show any specific binding
- specific binding to GC-C receptors on the surface of T84 cells [2]: failed to exhibit specific binding
- specific binding in ex vivo binding with rat intestinal fragments (rat intestinal fragments): lack of specific binding
- specific binding to cell membranes isolated from T84 cells [3]: did not show any specific binding

B1: SP-333 (dolcanatide), unlabeled (peptide)
peptide: [dN]DECELCVNVACTGC[dL]
modifications: disulfide 4-12, 7-15
notes: Synthetic analog of uroguanylin; also called Api 1251
- IC50 [4]: ~1.6 µM

Molecule: {Cy5.5}-[dN]DECELCVNVACTGC[dL] (disulfide 4-12, 7-15) [Cy5.5-SP-333]
- binding result [5]: no binding

Molecule: Cy3-[dN]DECELCVNVACTGC[dL] (disulfide 4-12, 7-15) [Cy3-SP-333]
- binding result [5]: no binding
